Assay: soluble on expression in E. coli; label from the status in PepcDB or PDB records
In the case of “MLPSTMFLVHLPLSTNRLHCLRNTSLESCLCSFVHLNHPLHISDPVILISLHEAVRFSFAFSFPRGTLSIAYCLMSSVSTSSEAIMSTELLANYCHSSLHVCICISSFPNETGNHDSFPGAVVSISDQPTDQCKLAAKELPLRNLLECRFFDCMGEEDLINLGVIGTER”, the “soluble on expression in E. coli” value is reported as “soluble”.
In the case of “MRAIVFVKATKSSEEGVMPTTELMEAMGKFNEELVNAGIMQSGDGLHPSSKGKRVVFDGDSRTVVNGPFPHTNELVAGFWIWKVKDMDEAVEWVKRCPNPMLEKSEIEIRPMFEMEDFGDAVTPEIAAHVEELRARVGKQ”, the “soluble on expression in E. coli” value is reported as “not soluble”.
With “MASSFDNQMDQDGMCSVYSAQPSETNCSINEVLAKEIIAVNETPDDQADSSIYPIPKSETNVSASEGFQPCQDINQFNLSVYSAPKSETPVTMNEKFERCKDLMNVLDYSVYSMPPSEANVTMNVASFSEYTALASETNVTMADVLKNVAQDLASEHTAKSAHPTFDTTAYVERLQAELGIPDSKVIGLECSNFSNAKIIDSIECLHQLDKFQPIPVDFDQNPDFGKTAKSVESYLLRSSNASSIHHEI” the “soluble on expression in E. coli” value was “not soluble”.
With “MQKHWWHKATVYQIYPKSFMDTNGDGIGDLKGITSKLDYLQKLGVMAIWLSPVYDSPMDDNGYDIANYEAIADIFGNMADMDNLLTQAKMRGIKIIMDLVVNHTSDEHAWFIEAREHPDSSERDYYIWCDQPNDLESIFGGSAWQYDDKSDQYYLHFFSKKQPDLNWENANLRQKIYDMMNFWIDKGIGGFRMDVIDMIGKIPAQHIVSNGPKLHAYLKEMNAASFGQHDLLTVGETWGATPEIAKQYSNPVNHELSMVFQFEHIGLQHKPEAPKWDYVKELNVPALKTIFNKWQTELELGQGWNSLFWNNHDLPRVLSIWGNTGKYREKSAKALAILLHLMRGTPYIYQGEEIGMTNYPFKDLNELDDIESLNYAKEAFTNGKSMETIMDSIRMIGRDNARTPMQWDASQNAGFSTADKTWLPVNPNYKDINVQAALKNSNSIFYTYQQLIQLRKENDWLVDADFELLPTADKVFAYLRKVREERYLIVVNVSDQEEVLEIDVDKQETLISNTNESAALANHKLQPWDAFCIKILEHHHHHH” the “soluble on expression in E. coli” value was “soluble”.
For “MKEHHIPKNSIITVAGTVGVGKSTLTKTLAKRLGFKTSLEEVDHNPYLEKFYHDFERWSFHLQIYFLAERFKEQKTIFEAGGGFVQDRSIYEDTGIFAKMHADKGTMSKVDYKTYTSLFEAMVMTPYFPHPDVLIYLEGDLENILNRIEQRGREMELQTSRSYWEEMHTRYENWISGFNACPVLKLRIEDYDLLNDENSIENIVDQIASVIHDNQKKLEHHHHHH”, the “soluble on expression in E. coli” value was “not soluble”.
In the case of “MSSFLRPAVSGQDPFTTGNYRAISSHLAITPPVSVVIPAMNEAENLPYVFKSLPDWIHEVVLVDGNSTDGTVEVARELWPDVKVVEQRGKGKGDALITGFEACTGDIIVMVDADGSADGQEIVSYVSALVSGADFAKGSRFANGGGTSDMTPIRKLGNRVLCAAVNAKFGARYTDLCYGYNAFWRHCLDQIDLDCTGFEVETLMNIRVVKAGLKVQEIPSHEYLRIHGASNLRAVRDGLRVLKVILKERSNRRALRSRPHAMQLNSGQGEVSLEHHHHHH”, the “soluble on expression in E. coli” value is reported as “soluble”.
For “MNYHQYYPIDVVNGPGTRCTLFVSGCVHQCKGCYNQSTWSLSSGHRYTQEMEDKIIADLKDTRIKRRGLSLSGGDPMHPANLSAVLQLVQRVKTECPDKDIWLWTGYTLAELDDSQQALLPYIDVLVDGKFIQEQADPGLEWRGSANQVIHRFTLLEHHHHHH”, the “soluble on expression in E. coli” value was “not soluble”.
In the case of “MGSDKIHHHHHHMRRFLILFVLLVAGCTGVDPNNPQYRAFVAVAEDVEPVGEAQCRSKDPERNCDFQIQLDLNPSAPANAFQTVDRSGRPVVIFTRSMLDSFRNPDEMAFVMGHEMAHHILEHLDQQRINAVKGAVFLGELVSLEGGTPEQVANAQYVGAVVGSRSYSKAFELEADALGTLITYQAGYRPSVGVKFFEEIPDPGDVFLGTHPANPDRIRIVQRTIRKYGLN”, the “soluble on expression in E. coli” value is reported as “not soluble”.
In the case of “MSLSGCASPASASGASALSVWDLFQGGDGMLMDDMIEAVSKGAGGAEGFEIDRTILDWGPSYYTKLAMSAAGGRASDVAAMHLSRLAGYAPGGLVDAFDLDLLAEYGVTEKDFTPAVWARTRHEGTVYAIPLDVHPFIVFYDKKAAERAGLLDAAGELAPMGSPEALLEAGKALAEATGESGILFGHVTDTAQNWRLFAGLYAQTGAAFDLPDGGPPEIDVDAAVRVVTLMTRLFDGKTNPSNLDYNGALAAFSSGRGGMAMLGEWELPTLKKSGMELGAAPFPQVFEKPAVYTDSHSFVLPHQDSPDPARRREAHRYVAQILAQSLTWASAGHIPAYQPVLAEPEYAALDPQSSYADAAEVAVLDPPNWFAGAGSNFQNRMCQPLQSALLGDTTPEKAVRQMVREADTLLRQPNPVAEGHHHHHH”, the “soluble on expression in E. coli” value is reported as “soluble”.
In the case of “MGSDKIHHHHHHMQPLAFRMRPRTIEEIVGQQHLVGPGKIIDRMVKAKLLSSMILYGPPGTGKTSIASAISGSTKYAFRILNAATDSKKDLQIVAEEAKMSGTVILLLDEIHRLDKTKQDFLLPHLENGNIILIGATTENPYININPAIRSRTQIFEVKPLQPDEIKKAVLAAIKDSSRGLGELPIVIDEDALKFVSESTNGDLRSALNAVELAARSTGPDENQKIHLTLAILEECLQKRALTQDKDGDAHYDVISAFQKSIRGSDTDAALHYMARLLESGDLQSVIRRLLIIAYEDIGLANPPACQRTVSAVTAAEHVGLPEARIPLADAVIELCVSPKSNSGISAIDNALTDVRTGKIGEVPDHLRDSHYKGAAALGRGVDYKYPHNYPNDWIAQQYLPDKLVDAAYFDAKGNSTYEEKIKNRYESLKKSQRSNH”, the “soluble on expression in E. coli” value is reported as “not soluble”.
In the case of “MHKKLNPKSMKRENKKMVLRYLIESGPHSRVEIARKTGLAQSAIWRIIEELVNEGLVEEKGTATGRRRKAVTYGPTRSFITSIIYNVEVLETLVAVGFLDGAWRIIERFSTPKDFDEFKQRVTSSYENILKSHVLNKNISKVVFSLPGIVNTESKFLIHAPNLGWRNIDFRREFGNLDLEVLVENDSNLSLLAEEFFSQDVKESDVAFFLYFGEGIGGAISVNGKIVRGENFAAGEIGHVVLDVKNGKEVEEFLSISKLVERMEKFVELQGESLDEKFRYIKRLWFSGEKNVKETMEEFLQHVAVVLKNIIYFLNPGVIVLGGVVNDLWDTFGSFIKRELEKITDREIANVLIRDTIFKEISPSLVGGNVLAIEEFLRQIT”, the “soluble on expression in E. coli” value is reported as “not soluble”.
In the case of “MAQALWTRNKSEITDEEYKEFYKHIAHDFNDPLTWSHNRVEGKQEYTSLLYIPSQAPWDMWNRDHKHGLKLYVQRVFIMDDAEQFMPNYLRFVRGLIDSSDLPLNVSREILQDSTVTRNLRNALTKRVLQMLEKLAKDDAEKYQTFWQQFGLVLKEGPAEDFANQEAIAKLLRFASTHTDSSAQTVSLEDYVSRMKEGQEKIYYITADSYAAAKSSPHLELLRKKGIEVLLLSDRIDEWMMNYLTEFDGKPFQSVSKVDESLEKLADGDLGTLVPRGSMAISDPNSSSVDKLAAALEHHHHHH”, the “soluble on expression in E. coli” value is reported as “soluble”.
With “MIEFFLPMDKIPTTTHQQKKVTVINGKPHFYEPESLKNARDKFTSLLAQHVPPSKLDGPIRLTVKWLFPKIKGSTNGQYKTTKPDTDNLQKLLKDCMTELGFWNDDAQVASEIIEKFWADTVGIYVKVEEL” the “soluble on expression in E. coli” value was “not soluble”.
In the case of “MGSDKIHHHHHHMQWDVIVVGGGPSGLTMAAELAGSGVRTLVLERRTDGVQSRAGTIMPRVLELLDARGIAHRFIEKTRAISNYPFRPSHIWAGFHPINWKYLESRFGFTLGLPQNHTEEILGAWAAECGAEIRTGMEVLDVRQSDDAVEIDVLDVAGTVATLHARYAVGADGGRSVVRNRLGLPFEGHSGTFRGIVIDAELHAPWPGGRVNVDNEMGWVRGYVFGDGVTRFNIVHRDRRHAPKDEPVTLEEALQCIRDVHGTDYGIRAFRWASRFDDQMRMVSSLRKGRVFLVGESARIHYPASGVGMNFCLQDAFNLGWKLANVINGVADPSTLDTYDAERLPVMHALLESVKAQCALQFNFEPDAVALKRRMQEHIIPLPDVQRKLVLELSGLEAPYPRAPSSHSLTGQRCPDLDLLLPDGSAVAVTQTLRERRFVLLDLEGFSRQFAALNLSGWPVTVLAARAARIPASMEGVKALLLRPDGYVAWAATDVAQAAEAEAQLAKWLKR”, the “soluble on expression in E. coli” value is reported as “not soluble”.
With “SMYKVRDISLAEWGRRELELAENEMPGLMELRREYGPSKPLKGAKIAGCLHMTMQTAVLIETLVELGAEVRWASCNIFSTQDHAAAAIAKRGIPVFAWKGETEEEYMWCMKQTLKGFSGDGYPNMLLDDGGDLTNYVLDECKELDGKIYGVSEETTTGVKNLYKRLQRGKLTIPAMNVNDSVTKSKFDNLYGCRESLVDGIKRATDVMIAGKTACVCGYGDVGKGCAAALRGFGARVVVTEVDPINALQAAMEGYQVLLVEDVVEEAHIFVTTTGNDDIITSEHFPRMRDDAIVCNIGHFDTEIQVAWLKANAKERVEVKPQVDRYTMANGRHIILLAEGRLVNLGCASGHPSFVMSNSFCNQVLAQIELWTNRDTGKYPRGAKAQVYFLPKKLDEKVAALHLGKLGAKLTKLTPKQAEYINCPVDGPFKPDHYRY” the “soluble on expression in E. coli” value was “soluble”.
For “MASMTGGQQMGRGSPNMLRKRQMTVLDLHPGSGKTRKILPQIIKDAIQQRLRTAVLAPTRVVAAEMAEALRGLPVRYQTSAVQREHQGNEIVDVMCHATLTHRLMSPNRVPNYNLFVMDEAHFTDPASIAARGYIATKVELGEAAAIFMTATPPGTTDPFPDSNAPIHDLQDEIPDRAWSSGYEWITEYAGKTVWFVASVKMGNEIAMCLQRAGKKVIQLNRKSYDTEYPKCKNGDWDFVITTDISEMGANFGASRVIDCRKSVKPTILEEGEGRVILGNPSPITSASAAQRRGRVGRNPNQVGDEYHYGGATSEDDSNLAHWTEAKIMLDNIHMPNGLVAQLYGPEREKAFTMDGEYRLRGEEKKNFLELLRTADLPVWLAYKVASNGIQYTDRKWCFDGPRTNAILEDNIEVEIVTRMGERKILKPRWLDARVYADHQALKWFKDFAAGKRHHHHHH”, the “soluble on expression in E. coli” value was “soluble”.
In the case of “MRVFPVTLGPLQENAYLVETGEGPVLIDPGDEPEKLLALFQTTGLIPLAILLTHAHFDHVGAVAPLVEALDLPVYLHPLDLPLYEGADLAARAWGLAIPKPPLPVRPLEEGMRLFGFQVLHLPGHSPGHVAFYDPEGAQVFSGDLLFRGSVGRYDLPGADPKALFASLKRLLSLPPETRVHPGHGPGTTLGLEARTNPFLTGLEWEA”, the “soluble on expression in E. coli” value is reported as “soluble”.
With “MGSDKIHHHHHHMCEISVVMPVYNAEMHIKDAIESVLEQSFVDFEFILIDDGSTDHTSSIIQSYNDKRVRLIQNSHNFIESLNLGIENSLGKYMARMDGDDIMHIDRLKIQYAIMQEYPDVTVCGTWMNSIGTYSQTNGLLSTLSGWVEQPLLKFTKGNFLFHPTTMIRMDFLKKNALKYENYPYAEDFKFWVEIAKSGGRFYIDSQPLLYYRISDSQVSSQKSSEQRATTESIINEVLEYLMELNKNEYPELAAAYGDLCKLYEKQLLTKCEVLTLFQTLFSKNEKKLNL” the “soluble on expression in E. coli” value was “not soluble”.
In the case of “MKAPLVSIIIPVWNLWELTCACLDSIRAHTPGNAVEVIVVDNGSDDTTATALAPTGEGLFGARFRRIRLETNRGFAVACNLGAAKAQGTYLLLLNNDTVLSPGWLPPLLREFDDEPRTGAAGPLLVYPDSGRVQHCGIAFAPTLQTEHLYANFPATHPAVRARRTLQAITGAAMLLPTALFRQCGGFHEGYKNGCEDLELCCRIREQGLRLAVVPESLVAHHESRTPGRKEHDAANATLLNRRCSGCFGPDLHRHALRDGFAIALTPWLDTYLTLPPGREAALTREHITDFDPGRCWETLQGEPLWHGGYEMLCSILDEAGRHAESAGVRLLQAGFFPTLPGFRQLARSAALSGNDELARQAAEKMQHIGGILEDPEPLVTRARGLVRWARRAGEPAVEALYTGWLTDIGLSADDLEHHHHHH”, the “soluble on expression in E. coli” value is reported as “soluble”.

From the DeepSol protein solubility set
